Measurements published in the RNAGym collection of RNA variant scans (doi:10.1093/molbev/msab373).

B1: Azoarcus group I ribozyme (parent)
chain: GUGCCUUGCGCCGGGAAACCACGCAAGGGAUGGUGUCAAAUUCGGCGAAACCUAAGCGCCCGCCCGGGCGUAUGGCAACGCCGAGCCAAGCUUCGGCGCCUGCGCCGAUGAAGGUGUAGAGACUAGACGGCACCCACCUAAGGCAAACGCUAUGGUGAAGGCAUAGUCCAGGGAGUGGCGAAAGUCACACAAACCGG

Variants of: B1
Assay: reverse-splicing fitness (ratio to wild type); higher = more active; in vitro selection; Mg2+ level not given
Procedure, shortened: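 An in vitro group I ribozyme library with randomized positions was T7-transcribed and gel-purified. In triplicate, 10 pmol RNA in EPPS pH 7.5 was reacted with 50 pmoles of a 30-nt RNA substrate for 1 h at 37 °C across several added MgCl2 levels (1–48 mM), then stopped with EDTA. Products were reverse transcribed from a substrate-complementary primer, PCR-amplified and sequenced (HiSeq 4000). Fitness is a variant's read proportion after selection over that before, normalised to wild type.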

| Variant | reverse-splicing fitness |
| --- | --- |
| GUGCCUUGCGCCGGGAAACCACGCAAGGGAUGGUGUCAAAUUCGGCGAAACCUAAGCGCCCGCCCGGGCGUAUGGCAACGCCGAGCCAAGCUUCGGCGCCUGCGCCGAUGCAGGUGUAGGGACUAGACGGCACCCACCUAAGGCUAACGCUAUGGUGAAGGCAUAGUCCAGGGAGAGGCGAAAGUCACACAAACCGG | 0.0392 |
| GUGCCUUGCGCCGGGAAACCACGCAAGGGAUGGUGUCAAAUUCGGCGAAACCUAAGCGCCCGCCCGGGCGUAUGGCAACGCCGAGCCAAGCUUCGGCGCCUGCGCCGAUGCAGGUGUAGGGACUAGACGGCACCCACCUAAGGCUAACGCUAUGGUGAAGGCAUAGUCCAGGGAGGGGCGAAAGUCACACAAACCGG | 0.00568 |
| GUGCCUUGCGCCGGGAAACCACGCAAGGGAUGGUGUCAAAUUCGGCGAAACCUAAGCGCCCGCCCGGGCGUAUGGCAACGCCGAGCCAAGCUUCGGCGCCUGCGCCGAUGCAGGUGUAGGGACUAGACGGCACCCACCUAAGGCUAACGCUAUGGUGAAGGCAUAGUCCAGGGAGCGGCGAAAGUCACACAAACCGG | 0.0406 |
| GUGCCUUGCGCCGGGAAACCACGCAAGGGAUGGUGUCAAAUUCGGCGAAACCUAAGCGCCCGCCCGGGCGUAUGGCAACGCCGAGCCAAGCUUCGGCGCCUGCGCCGAUGCAGGUGUAGGGACUAGACGGCACCCACCUAAGGCAAACGAUAUGGUGAAGGCAUAGUCAAGGGAGGGGCGAAAGUCACACAAACCGG | 0.00594 |
| GUGCCUUGCGCCGGGAAACCACGCAAGGGAUGGUGUCAAAUUCGGCGAAACCUAAGCGCCCGCCCGGGCGUAUGGCAACGCCGAGCCAAGCUUCGGCGCCUGCGCCGAUGCAGGUGUAGGGACUAGACGGCACCCACCUAAGGCAAACGAUAUGGUGAAGGCAUAGUCAAGGGAGAGGCGAAAGUCACACAAACCGG | 0.0174 |
| GUGCCUUGCGCCGGGAAACCACGCAAGGGAUGGUGUCAAAUUCGGCGAAACCUAAGCGCCCGCCCGGGCGUAUGGCAACGCCGAGCCAAGCUUCGGCGCCUGCGCCGAUGCAGGUGUAGGGACUAGACGGCACCCACCUAAGGCAAACGAUAUGGUGAAGGCAUAGUCAAGGGAGCGGCGAAAGUCACACAAACCGG | 0.023 |
| GUGCCUUGCGCCGGGAAACCACGCAAGGGAUGGUGUCAAAUUCGGCGAAACCUAAGCGCCCGCCCGGGCGUAUGGCAACGCCGAGCCAAGCUUCGGCGCCUGCGCCGAUGCAGGUGUAGGGACUAGACGGCACCCACCUAAGGCUAACGCUAUGGUGAAGGCAUAGUCGAGGGAGAGGCGAAAGUCACACAAACCGG | 0.0277 |
| GUGCCUUGCGCCGGGAAACCACGCAAGGGAUGGUGUCAAAUUCGGCGAAACCUAAGCGCCCGCCCGGGCGUAUGGCAACGCCGAGCCAAGCUUCGGCGCCUGCGCCGAUGCAGGUGUAGGGACUAGACGGCACCCACCUAAGGCUAACGCUAUGGUGAAGGCAUAGUCGAGGGAGGGGCGAAAGUCACACAAACCGG | 0.00448 |
| GUGCCUUGCGCCGGGAAACCACGCAAGGGAUGGUGUCAAAUUCGGCGAAACCUAAGCGCCCGCCCGGGCGUAUGGCAACGCCGAGCCAAGCUUCGGCGCCUGCGCCGAUGCAGGUGUAGGGACUAGACGGCACCCACCUAAGGCUAACGCUAUGGUGAAGGCAUAGUCGAGGGAGCGGCGAAAGUCACACAAACCGG | 0.0343 |
| GUGCCUUGCGCCGGGAAACCACGCAAGGGAUGGUGUCAAAUUCGGCGAAACCUAAGCGCCCGCCCGGGCGUAUGGCAACGCCGAGCCAAGCUUCGGCGCCUGCGCCGAUGCAGGUGUAGGGACUAGACGGCACCCACCUAAGGCAAACGGUAUGGUGAAGGCAUAGUCCAGGGAGUGGCGAAAGUCACACAAACCGG | 0.0159 |
| GUGCCUUGCGCCGGGAAACCACGCAAGGGAUGGUGUCAAAUUCGGCGAAACCUAAGCGCCCGCCCGGGCGUAUGGCAACGCCGAGCCAAGCUUCGGCGCCUGCGCCGAUGCAGGUGUAGGGACUAGACGGCACCCACCUAAGGCAAACGAUAUGGUGAAGGCAUAGUCCAGGGAGUGGCGAAAGUCACACAAACCGG | 0.0211 |
| GUGCCUUGCGCCGGGAAACCACGCAAGGGAUGGUGUCAAAUUCGGCGAAACCUAAGCGCCCGCCCGGGCGUAUGGCAACGCCGAGCCAAGCUUCGGCGCCUGCGCCGAUGCAGGUGUAGGGACUAGACGGCACCCACCUAAGGCUAACGCUAUGGUGAAGGCAUAGUCUAGGGAGUGGCGAAAGUCACACAAACCGG | 0.174 |
| GUGCCUUGCGCCGGGAAACCACGCAAGGGAUGGUGUCAAAUUCGGCGAAACCUAAGCGCCCGCCCGGGCGUAUGGCAACGCCGAGCCAAGCUUCGGCGCCUGCGCCGAUGCAGGUGUAGGGACUAGACGGCACCCACCUAAGGCUAACGCUAUGGUGAAGGCAUAGUCGAGGGAGUGGCGAAAGUCACACAAACCGG | 0.203 |
| GUGCCUUGCGCCGGGAAACCACGCAAGGGAUGGUGUCAAAUUCGGCGAAACCUAAGCGCCCGCCCGGGCGUAUGGCAACGCCGAGCCAAGCUUCGGCGCCUGCGCCGAUGCAGGUGUAGGGACUAGACGGCACCCACCUAAGGCUAACGCUAUGGUGAAGGCAUAGUCAAGGGAGCGGCGAAAGUCACACAAACCGG | 0.0182 |
| GUGCCUUGCGCCGGGAAACCACGCAAGGGAUGGUGUCAAAUUCGGCGAAACCUAAGCGCCCGCCCGGGCGUAUGGCAACGCCGAGCCAAGCUUCGGCGCCUGCGCCGAUGCAGGUGUAGGGACUAGACGGCACCCACCUAAGGCUAACGCUAUGGUGAAGGCAUAGUCAAGGGAGGGGCGAAAGUCACACAAACCGG | 0.0051 |
